Target: T1, EGF receptor (Homo sapiens, UniProt P00533)
T1 construct: expressed in transfected cells; host or cells: HER14 (NIH 3T3 cells expressing human EGF receptor)
Assay: Binding of GST fusion proteins on glutathione-agarose beads to EGF receptor from HER14 cell lysates, immunoblot
Description: FIGS. 2A and 2B. Association of GST-Shc 1-209 with the EGF Receptor (EGFR). A, HER14 lysates from either EGF-stimulated (+) or unstimulated (−) cells (5×10^6 cells) were incubated with 3 μg of GST fusion protein immobilized on glutathione-agarose beads. The bound proteins were washed, subjected to SDS-PAGE, transferred to nitrocellulose and immunoblotted with anti-EGF receptor antibody, anti-C (anti-EGFR). HER14 lysate (4×10^5 cells) was run directly on the gel in lanes 5 and 6. B, unstimulated HER14 lysates (5×10^6 cells) were immunoprecipitated with anti-EGFR antibody (mAb 108). The immobilized receptor was then phosphorylated (+) by the addition of 5 mM MnCl2 and 50 μM ATP or left unphosphorylated (−) by adding MnCl2 alone. Bacterial lysates containing 5 μg of GST, GST-Grb7, and GST-Shc 1-209 were then diluted in 1 ml of 1% Triton X-100 lysis buffer, added to the immobilized receptor and incubated at 4° C. for 90 min. The bound proteins were washed and together with 40 μl of the post-binding supernatant separated by SDS-PAGE and transferred to nitrocellulose. The bound fractions (left panel) and supernatants (right panel) were immunoblotted with anti-GST. FIGS. 4A, 4B, 4C and 4D. Binding of Shc fragments to growth factor receptors. A, schematic diagram illustrating the Shc fragments used in binding studies. Full length murine p52^shc is indicated in (i) while (ii)-(vi) were generated as GST fusion proteins for use in receptor binding studies. B, association of various GST fusion proteins with activated EGF receptor (EGFR). Binding was performed as in FIG. 2A with the exception that all lysates were stimulated with EGF. All studies used 3 μg of fusion proteins except for the Shc SH2 where 10 μg was used. Immunoblotting was performed with anti-phosphotyrosine. C, binding of Shc fusion proteins to NIH 3T3 cells expressing a HER1/2 chimera. This chimera consists of the EGF receptor extracellular binding domain and the intracellular region of HER2/neu. After stimulation of these cells with EGF (200 ng/ml) lysates were prepared and binding as well as blotting studies were performed as in B using anti-phosphotyrosine antibody. D, binding of Shc 1-209 to TrkA. Beads containing 10 μg of GST fusion proteins Shc 1-209, phospholipase C-γ (PLC-γ) SH2 (contains both N and C SH2 domains), or GST alone were added to lysates from 2×10^7 PC12 cells stimulated with 50 ng/ml nerve growth factor (lanes 1, 2, and 4). The binding of the same amount of lysate to 2 μg of anti-TrkA antibody is shown as a positive control and to indicate the position of TrkA on the blot (lane 3). Otherwise, the binding and blotting were performed as in B using anti-phosphotyrosine antibody. […]

B1: Shc 1-209: Shc amino terminus, first 209 amino acids of murine p52Shc, generated as a GST fusion protein (protein, UniProt P98083 1-209, looked up, fragment)
chain: MDLLPPKPKYNPLRNESLSSLEEGASGSTPPEELPSPSASSLGPILPPLPGDDSPTTLCSFFPRMSNLKLANPAGGRLGPKGEPGKAAEDGEGSAGAALRDSGLLPLLQDMNKLSGGGGRRTRVEGGQLGGEEWTRHGSFVNKPTRGWLHPNDKVMGPGVSYLVRYMGCVEVLQSMRALDFNTRTQVTREAISLVCEAVPGAKGATRRR
modifications: GST fusion
notes: Shc amino terminus, first 209 amino acids of murine p52Shc, generated as a GST fusion protein
EGF receptor binding compared with the Shc SH2 domain (3 μg fusion protein vs 10 μg Shc SH2, EGF-stimulated lysates): comparable or superior | binding to EGF receptor (GST fusion protein, lysates of EGF-stimulated or unstimulated cells): bound only to the activated tyrosine-phosphorylated receptor

From patent US20050032689A1, “Methods for treatment or diagnosis of disease or disorders associated with an APB domain” (New York University, priority 1994, published 2005)
